Assays:
[1] = target: phosphorylated PorXFj (PorXFj incubated with acetyl phosphate and MgCl2) (Flavobacterium johnsoniae) (UniProt A5FFU4); assay: SEC-MALS; PorXFj 1.6 mg/mL incubated 1 h at RT with 20 mM AcP + 10 mM MgCl2; Superdex 200 Increase 10/300 GL in PBS
[2] = target: PorXFj (Fjoh_2906), the Flavobacterium johnsoniae PorX homolog, purified, not phosphorylated (Flavobacterium johnsoniae) (UniProt A5FFU4); assay: SEC-MALS; PorXFj 1.6 mg/mL incubated 1 h at RT with 100 uM ZnCl2; column equilibrated in PBS only
[3] = target: PorXFj (Fjoh_2906), the Flavobacterium johnsoniae PorX homolog, purified, not phosphorylated (Flavobacterium johnsoniae) (UniProt A5FFU4); assay: SEC; PorXFj 1.6 mg/mL incubated 1 h at RT with 100 uM CuCl2; Superdex 200 Increase 10/300 GL in PBS with 100 uM CuCl2
[4] = target: PorXFj (Fjoh_2906), the Flavobacterium johnsoniae PorX homolog, purified, not phosphorylated (Flavobacterium johnsoniae) (UniProt A5FFU4); assay: SEC; PorXFj 1.6 mg/mL incubated 1 h at RT with 100 uM MnCl2; Superdex 200 Increase 10/300 GL in PBS with 100 uM MnCl2
[5] = target: PorXFj (Fjoh_2906), the Flavobacterium johnsoniae PorX homolog, purified, not phosphorylated (Flavobacterium johnsoniae) (UniProt A5FFU4); assay: SEC; PorXFj 1.6 mg/mL incubated 1 h at RT with 100 uM ZnCl2; Superdex 200 Increase 10/300 GL in PBS with 100 uM ZnCl2

Substance	stoichiometry N [1]	stoichiometry N [2]	stoichiometry N [3]	stoichiometry N [4]	stoichiometry N [5]
phosphorylated PorXFj (PorXFj incubated with acetyl phosphate and MgCl2) (from UniProt A5FFU4 1-517) (natural protein)	2	–	–	–	–
PorXFj (Fjoh_2906), the Flavobacterium johnsoniae PorX homolog, purified, not phosphorylated (from UniProt A5FFU4 1-517) (natural protein)	–	2	2	2	2
